{
  "source": "patent US20050153366",
  "about": "“Protein-protein interaction antagonist screening libraries based upon 1,4-disubstituted naphthalenes and related scaffolds” (published 2005)",
  "binders": {"B1": {"name": "HOXPBX-CT probe (dsDNA)", "DNA 1": "CTCTCCTTTTGATTGATTAA", "DNA 2": "AGAGCTTAATCAATCAAAAGG"}},
  "target": "T1, PBX1 (residues 233-319) (mouse/human, UniProt P40424 P40424:233-319)",
  "T1 sequence": "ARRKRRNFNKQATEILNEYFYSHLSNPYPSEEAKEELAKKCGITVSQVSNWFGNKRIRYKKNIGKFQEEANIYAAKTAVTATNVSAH",
  "assay": "EMSA; binary PBX1/DNA complex; inhibited by compound 31, not by compound 15",
  "details": "label: 32P (Klenow fill-in with alpha-32P-dCTP); annealed with overhangs extended by Klenow",
  "data": [
    {"binder": "B1", "values": [
      {"measurement": "binding result", "value": "binds"}
    ]}
  ]
}
